According to patent US20140073575:

T1: (GDK)4 acceptor peptide
T1 chain: GDKGDKGDKGDK

T2: His10-tagged human collagen III construct, P02461
T2 chain: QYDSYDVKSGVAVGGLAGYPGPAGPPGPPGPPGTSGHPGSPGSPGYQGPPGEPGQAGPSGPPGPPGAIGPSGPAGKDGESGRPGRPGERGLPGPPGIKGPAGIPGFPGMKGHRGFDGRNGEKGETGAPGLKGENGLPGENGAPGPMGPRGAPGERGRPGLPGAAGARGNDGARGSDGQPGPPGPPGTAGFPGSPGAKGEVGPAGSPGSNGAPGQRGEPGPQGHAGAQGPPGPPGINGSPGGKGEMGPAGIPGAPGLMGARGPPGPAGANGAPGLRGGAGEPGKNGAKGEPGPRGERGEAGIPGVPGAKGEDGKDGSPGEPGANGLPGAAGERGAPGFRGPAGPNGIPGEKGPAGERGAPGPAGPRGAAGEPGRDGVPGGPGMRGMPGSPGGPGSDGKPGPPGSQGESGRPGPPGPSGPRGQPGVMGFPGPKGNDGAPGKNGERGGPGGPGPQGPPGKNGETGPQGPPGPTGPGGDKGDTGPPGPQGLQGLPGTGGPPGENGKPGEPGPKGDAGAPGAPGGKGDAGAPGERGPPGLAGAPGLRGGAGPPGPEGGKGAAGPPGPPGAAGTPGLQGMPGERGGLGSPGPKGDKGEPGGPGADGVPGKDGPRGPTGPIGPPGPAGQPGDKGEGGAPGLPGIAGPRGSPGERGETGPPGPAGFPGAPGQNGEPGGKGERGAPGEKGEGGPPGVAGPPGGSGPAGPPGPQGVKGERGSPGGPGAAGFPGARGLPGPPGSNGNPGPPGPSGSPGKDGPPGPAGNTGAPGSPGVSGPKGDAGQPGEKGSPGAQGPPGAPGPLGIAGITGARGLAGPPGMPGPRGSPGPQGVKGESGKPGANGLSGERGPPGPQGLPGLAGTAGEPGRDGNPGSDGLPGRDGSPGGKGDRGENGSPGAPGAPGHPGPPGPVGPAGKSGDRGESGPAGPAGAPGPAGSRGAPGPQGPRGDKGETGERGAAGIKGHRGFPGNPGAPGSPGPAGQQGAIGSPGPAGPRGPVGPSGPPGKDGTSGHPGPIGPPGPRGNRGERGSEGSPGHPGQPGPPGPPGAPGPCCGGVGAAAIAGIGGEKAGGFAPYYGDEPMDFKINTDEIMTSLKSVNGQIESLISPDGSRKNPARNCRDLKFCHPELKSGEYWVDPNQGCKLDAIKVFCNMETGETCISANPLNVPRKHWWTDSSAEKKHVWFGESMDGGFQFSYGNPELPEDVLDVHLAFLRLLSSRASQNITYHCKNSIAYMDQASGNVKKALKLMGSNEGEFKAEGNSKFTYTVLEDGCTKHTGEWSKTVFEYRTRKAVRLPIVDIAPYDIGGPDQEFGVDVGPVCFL

T3: MimiD peptide GTKGETGLKGII
T3 chain: GTKGETGLKGII


Key:
[1] = molecular target: T1, (GDK)4 acceptor peptide
[2] = molecular target: T2, His10-tagged human collagen III …
[3] = molecular target: T3, MimiD peptide GTKGETGLKGII
[4] = molecular target: (GPP)7 acceptor peptide

Protein | lysyl hydroxylase activity [1] | hydroxylysine in collagen III after co-expression in E. coli (amino acid analysis by HPLC) [2] | lysyl hydroxylase activity [3] | prolyl hydroxylase activity ([14C]-CO2 production from [14C]-2-oxoglutarate) [4] | hydroxyproline in collagen III after co-expression in E. coli (amino acid analysis by HPLC, tandem mass spectrometry of tryptic peptides) [2]
Mimivirus lysyl hydroxylase L230 (protein) MISRTYVINLARRPDKKDRILAEFLKLKEKGVELNCVIFEAVDGNNPEHLSRFNFKIPNWTDLNSGKPMTNGEVGCALSHWSVWKDVVDCVENGTLDKDCRILVLEDDVVFLDNFMERYQTYTSEITYNCDLLYLHRKPLNPYTETKISTHIVKPNKSYWACAYVITYQCAKKFMNANYLENLIPSDEFIPIMHGCNVYGFEKLFSNCEKIDCYAVQPSLVKLTSNAFNDSETFHSGSYVPSNKFNFDTDKQFRIVYIGPTKGNSFHRFTEYCKLYLLPYKVIDEKETNDFVSLRSELQSLSEQDLNTTLMLVVSVNHNDFCNTIPCAPTNEFIDKYKQLTTDTNSIVSAVQNGTNKTMFIGWANKISEFINHYHQKLTESNAETDINLANLLLISSISSDFNCVVEDVEGNLFQLINEESDIVFSTTTSRVNNKLGKTPSVLYANSDSSVIVLNKVENYTGYGWNEYYGYHVYPVKFDVLPKIYLSIRIVKNANVTKIAETLDYPKELITVSISRSEHDSFYQADIQKFLLSGADYYFYISGDCIITRPTILKELLELNKDFVGPLMRKGTESWTNYWGDIDPSNGYYKRSFDYFDIIGRDRVGCWNVPYLASVYLIKKSVIEQVPNLFTENSHMWNGSNIDMRLCHNLRKNNVFMYLSNLRPYGHIDDSINLEVLSGVPTEVTLYDLPTRKEEWEKKYLHPEFLSHLQNFKDFDYTEICNDVYSFPLFTPAFCKEVIEVMDKANLWSKGGDSYFDPRIGGVESYPTQDTQLYEVGLDKQWHYVVFNYVAPFVRHLYNNYKTKDINLAFVVKYDMERQSELAPHHDSSTYTLNIALNEYGKEYTAGGCEFIRHKFIWQGQKVGYATIHAGKLLAYHRALPITSGKRYILVSFVN | The lysyl hydroxylase activity was highest towards the (GDK)4 peptide and the GTKGETGLKGII peptide derived from a Mimivirus collagen sequence | A peak corresponding to hydroxylysine was detected in collagen III co-expressed with L230 but not in collagen expressed alone in E. coli | The lysyl hydroxylase activity was highest towards the (GDK)4 peptide and the GTKGETGLKGII peptide derived from a Mimivirus collagen sequence | – | –
Mimivirus prolyl hydroxylase L593_short (protein) MVLSKSCVSHFRNVGSLNSRDVNLKDDFSYANIDDPYNKPFVLNNLINPTKCQEIMQFANGKLFDSQVLSGTDKNIRNSQQMWISKNNPMVKPIFENICRQFNVPFDNAEDLQVVRYLPNQYYNEHHDSCCDSSKQCSEFIERGGQRILTVLIYLNNEFSDGHTYFPNLNQKFKPKTGDALVFYPLANNSNKCHPYSLHAGMPVTSGEKWIANLWFRERKFS | – | – | – | the short form of L593 yielded prolyl hydroxylase activity in the range of 600 pmol/min/mg protein | the amino acid hydroxyproline was clearly detected in the human collagen III extract when the Mimivirus L593 protein was co-expressed
Mimivirus prolyl hydroxylase L593_long (protein) MKTVTIITIIVVIIVVILIIMVLSKSCVSHFRNVGSLNSRDVNLKDDFSYANIDDPYNKPFVLNNLINPTKCQEIMQFANGKLFDSQVLSGTDKNIRNSQQMWISKNNPMVKPIFENICRQFNVPFDNAEDLQVVRYLPNQYYNEHHDSCCDSSKQCSEFIERGGQRILTVLIYLNNEFSDGHTYFPNLNQKFKPKTGDALVFYPLANNSNKCHPYSLHAGMPVTSGEKWIANLWFRERKFS | – | – | – | Both short and long forms of L593 are active as prolyl hydroxylases, but the short form has a higher specific activity than the long form | –
